Source: patent US7939292B2, “Modified heparinase III and methods of sequencing therewith” (Massachusetts Institute of Technology, priority 2000, dated 2011)

Legend:
[1] = Heparinase III kinetic assay of r-heparinase III and histidine mutants; format: biochemical; details: heparan sulfate; for Km: calculated assuming a molecular weight of 15 kDa
Method: The activity of heparinase III was measured using a UV 232 nm assay similar to those reported for heparinase I and heparinase II (Godavarti, R., Cooney, C. L., Langer, R., and Sasisekharan, R. (1996) Biochemistry 35, 6846-52; Shriver, Z., Hu, Y., and Sasisekharan, R. (1998) J. Biol. Chem. 273, 10160-67; and Lohse, D. and Linhardt, R. J. (1992) J. Biol. Chem. 267, 781-87). Briefly, the increase in absorbance at 232 nm as a function of time was monitored under saturating substrate conditions. All assays were performed with heparan sulfate at a concentration of 2 mg/ml in 50 mM sodium phosphate, pH 7.6. The temperature for enzymatic activity measurements was kept constant at 35° C.
In parallel to the mapping studies and to confirm the results of the chemical modification experiments, each of the thirteen histidine residues present in heparinase III was mutated to alanine. The recombinant heparinase III mutant proteins were expressed, purified, and assessed for enzymatic activity towards heparan sulfate (Table 2).

[2] = SAX-HPLC analysis of exhaustive heparan sulfate digests; format: biochemical; details: for catalytic activity in overnight heparan sulfate digests: SAX-HPLC, overnight 37° C.
Method: Exhaustive digests of 3 mg/ml heparan sulfate in 50 mM sodium phosphate buffer, pH 7.6 were performed overnight at 37° C. for each of the mutants (20 μg protein). The reactions were loaded onto a Spherisorb S5 SAX column (Waters) and eluted using a linear gradient of 0.2-1.0 M NaCl, pH 3.5. The products were monitored at 232 nm and each of the major peaks was collected. To determine their composition, the collected fractions were analyzed by capillary electrophoresis and identified by comigration with known standards.
As a control, the r-heparinase III construct without its putative signal sequence was expressed. The concentration and purity of all recombinant enzyme preparations were determined using SDS-PAGE. The recombinantly expressed heparinase III was also compared to the heparinase III isolated from F. heparinum to ensure that they were the same molecular weight. Heparinase III (20 μg/mL) was incubated with a 4 mg/mL of heparan sulfate overnight at 37° C. The reaction was loaded onto a SAX column and the saccharide products were eluted using a gradient of 0.2-1.0 M NaCl, pH 3.5 over 30 min. and monitored at 232 nm. (A) Heparan sulfate digested with heparinase III from F. heparinum. (B) Heparan sulfate digested with recombinant heparinase III. (C) Heparan sulfate digested with the H295A mutant enzyme. (D) Heparan sulfate digested with the H510A mutant enzyme. (E) Heparan sulfate digested with the H105A mutant enzyme.

| Molecule | kcat [1] | Km [1] | heparan sulfate degradation product profile compared to wild type heparinase III ([2]; SAX-HPLC and capillary electrophoresis) | catalytic activity in overnight heparan sulfate digests [2] |
| --- | --- | --- | --- | --- |
| wild-type r-heparinase III: recombinantly expressed heparinase III construct without its putative signal sequence, His-tagged, from E. coli (protein, UniProt Q59289 25-659, looked up, His tag; no signal sequence) Heparin-sulfate lyase: QSSSITRKDFDHINLEYSGLEKVNKAVAAGNYDDAAKALLAYYREKSKAREPDFSNAEKPADIRQPIDKVTREMADKALVHQFQPHKGYGYFDYGKDINWQMWPVKDNEVRWQLHRVKWWQAMALVYHATGDEKYAREWVYQYSDWARKNPLGLSQDNDKFVWRPLEVSDRVQSLPPTFSLFVNSPAFTPAFLMEFLNSYHQQADYLSTHYAEQGNHRLFEAQRNLFAGVSFPEFKDSPRWRQTGISVLNTEIKKQVYADGMQFELSPIYHVAAIDIFLKAYGSAKRVNLEKEFPQSYVQTVENMIMALISISLPDYNTPMFGDSWITDKNFRMAQFASWARVFPANQAIKYFATDGKQGKAPNFLSKALSNAGFYTFRSGWDKNATVMVLKASPPGEFHAQPDNGTFELFIKGRNFTPDAGVFVYSGDEAIMKLRNWYRQTRIHSTLTLDNQNMVITKARQNKWETGNNLDVLTYTNPSYPNLDHQRSVLFINKKYFLVIDRAIGEATGNLGVHWQLKEDSNPVFDKTKNRVYTTYRDGNNLMIQSLNADRTSLNEEEGKVSYVYNKELKRPAFVFEKPKKNAGTQNFVSIVYPYDGQKAPEISIRENKGNDFEKGKLNLTLTINGKQQLVLVP | 78 s⁻¹ | 80 µM | identical product profile |  |
| H105A: recombinant heparinase III with histidine 105 mutated to alanine (protein) MTTKIFKRIIVFAVIALSSGNILAQSSSITRKDFDHINLEYSGLEKVNKAVAAGNYDDAAKALLAYYREKSKAREPDFSNAEKPADIRQPIDKVTREMADKALVAQFQPHKGYGYFDYGKDINWQMWPVKDNEVRWQLHRVKWWQAMALVYHATGDEKYAREWVYQYSDWARKNPLGLSQDNDKFVWRPLEVSDRVQSLPPTFSLFVNSPAFTPAFLMEFLNSYHQQADYLSTHYAEQGNHRLFEAQRNLFAGVSFPEFKDSPRWRQTGISVLNTEIKKQVYADGMQFELSPIYHVAAIDIFLKAYGSAKRVNLEKEFPQSYVQTVENMIMALISISLPDYNTPMFGDSWITDKNFRMAQFASWARVFPANQAIKYFATDGKQGKAPNFLSKALSNAGFYTFRSGWDKNATVMVLKASPPGEFHAQPDNGTFELFIKGRNFTPDAGVFVYSGDEAIMKLRNWYRQTRIHSTLTLDNQNMVITKARQNKWETGNNLDVLTYTNPSYPNLDHQRSVLFINKKYFLVIDRAIGEATGNLGVHWQLKEDSNPVFDKTKNRVYTTYRDGNNLMIQSLNADRTSLNEEEGKVSYVYNKELKRPAFVFEKPKKNAGTQNFVSIVYPYDGQKAPEISIRENKGNDFEKGKLNLTLTINGKQQLVLVP |  |  |  | retain their catalytic activity |
| H110A: recombinant heparinase III with histidine 110 mutated to alanine (protein) MTTKIFKRIIVFAVIALSSGNILAQSSSITRKDFDHINLEYSGLEKVNKAVAAGNYDDAAKALLAYYREKSKAREPDFSNAEKPADIRQPIDKVTREMADKALVHQFQPAKGYGYFDYGKDINWQMWPVKDNEVRWQLHRVKWWQAMALVYHATGDEKYAREWVYQYSDWARKNPLGLSQDNDKFVWRPLEVSDRVQSLPPTFSLFVNSPAFTPAFLMEFLNSYHQQADYLSTHYAEQGNHRLFEAQRNLFAGVSFPEFKDSPRWRQTGISVLNTEIKKQVYADGMQFELSPIYHVAAIDIFLKAYGSAKRVNLEKEFPQSYVQTVENMIMALISISLPDYNTPMFGDSWITDKNFRMAQFASWARVFPANQAIKYFATDGKQGKAPNFLSKALSNAGFYTFRSGWDKNATVMVLKASPPGEFHAQPDNGTFELFIKGRNFTPDAGVFVYSGDEAIMKLRNWYRQTRIHSTLTLDNQNMVITKARQNKWETGNNLDVLTYTNPSYPNLDHQRSVLFINKKYFLVIDRAIGEATGNLGVHWQLKEDSNPVFDKTKNRVYTTYRDGNNLMIQSLNADRTSLNEEEGKVSYVYNKELKRPAFVFEKPKKNAGTQNFVSIVYPYDGQKAPEISIRENKGNDFEKGKLNLTLTINGKQQLVLVP | 37 s⁻¹ | 9 µM |  | retain their catalytic activity |
| H139A: recombinant heparinase III with histidine 139 mutated to alanine (protein) MTTKIFKRIIVFAVIALSSGNILAQSSSITRKDFDHINLEYSGLEKVNKAVAAGNYDDAAKALLAYYREKSKAREPDFSNAEKPADIRQPIDKVTREMADKALVHQFQPHKGYGYFDYGKDINWQMWPVKDNEVRWQLARVKWWQAMALVYHATGDEKYAREWVYQYSDWARKNPLGLSQDNDKFVWRPLEVSDRVQSLPPTFSLFVNSPAFTPAFLMEFLNSYHQQADYLSTHYAEQGNHRLFEAQRNLFAGVSFPEFKDSPRWRQTGISVLNTEIKKQVYADGMQFELSPIYHVAAIDIFLKAYGSAKRVNLEKEFPQSYVQTVENMIMALISISLPDYNTPMFGDSWITDKNFRMAQFASWARVFPANQAIKYFATDGKQGKAPNFLSKALSNAGFYTFRSGWDKNATVMVLKASPPGEFHAQPDNGTFELFIKGRNFTPDAGVFVYSGDEAIMKLRNWYRQTRIHSTLTLDNQNMVITKARQNKWETGNNLDVLTYTNPSYPNLDHQRSVLFINKKYFLVIDRAIGEATGNLGVHWQLKEDSNPVFDKTKNRVYTTYRDGNNLMIQSLNADRTSLNEEEGKVSYVYNKELKRPAFVFEKPKKNAGTQNFVSIVYPYDGQKAPEISIRENKGNDFEKGKLNLTLTINGKQQLVLVP | 68 s⁻¹ | 191 µM |  | retain their catalytic activity |
